Key:
plasmid DNA = experiment: DNA retardation assay (agarose gel electrophoresis); format: binding
Protocol: This assay qualitatively assesses the ability of a polypeptide or polycation to bind to DNA and thus to retard its migration (by decreasing its charge/mass ratio) through an agarose gel under electrophoresis. For a range of N/P ratios, polypeptide was added to 0.1 μg of plasmid DNA made up to 20 μl with either HEPES-buffered saline (HBS, 150 mM NaCl, 29 mM HEPES, pH 7.3) or 5% glucose. The mixtures were vortexed and incubated at room temperature for 30 minutes before being subjected to electrophoresis in a 0.8–1.0% Tris-borate-EDTA agarose gel stained with ethidium bromide for visualization under ultraviolet light.

[1] = test system: PC12 (TrkA and p75^NTR positive) cells; experiment: Gene delivery in vitro (pCAGluc luciferase reporter), PC12 cells; format: cell-based, rat
Protocol: (§1) A PC12 (rat pheochromocytoma) cell line was obtained from ATCC (American Type Culture Collection, Manassas, Va., USA) and cultured in RPMI-1640 medium supplemented with 10% fetal bovine serum (FBS) and 5% horse serum. PC12 cells are known to express TrkA and p75^NTR receptors. A COS7 (African green monkey kidney fibroblast) cell line was obtained from ATCC and cultured in Dulbecco's modified Eagle's medium (DMEM) supplemented with 10% fetal bovine serum, 50 U/ml penicillin, and 50 μg/ml streptomycin. The cells were maintained in a 37° C., 5% CO2, humidified incubator.
(§2) To determine the transfection efficiencies of our nucleic acid delivery systems, we employ a reporter plasmid, pCAGluc (a gift from Yoshiharu Matsuura, National Institute of Infectious Diseases, Tokyo, Japan), encoding firefly luciferase under the control of the composite promoter, CAG. CAG comprises the chicken β-actin promoter and the cytomegalovirus immediate early enhancer.
TrkA-targeting gene delivery complexes were tested for transfection efficiency in vitro in PC12 (TrkA and p75^NTR positive) cells and COS7 (neurotrophin receptor negative) cells. The cells were grown to 50–70% confluency in microplate wells (24-, 48-, or 96-well plates). The gene delivery complexes were prepared according to specifications presented for each example. Transfection was accomplished by replacing the serum-enriched medium with half the usual volume of reduced-serum medium, Opti-MEM (Invitrogen), containing the gene delivery complexes. Where specifically mentioned, 100 μM of chloroquine was also added to help the complexes escape from endosomes. After four hours of incubation, the cells were restored to the normal medium volume and serum concentration, either by topping up with medium containing twice the usual serum concentration (RPMI-1640 with 20% FBS and 10% horse serum for PC12) or by completely replacing the medium.
One to two days after transfection, the cell culture medium was removed and the cells were rinsed in phosphate-buffered saline (PBS). Enough Reporter Lysis Buffer (Promega, Wisconsin, Md., USA) to cover the bottom surface was added to each well (50 μl/well for 48-well plates). After one freeze-thaw cycle, the lysates were tested for luciferase activity using the Luciferase Assay System (Promega) and a single-tube luminometer (Berthold Lumat L B 9507, Bad Wildbad, Germany). The total protein concentration of each lysate was determined using the DC Protein assay (Bio-Rad, Hercules, Calif., USA). The results were expressed in relative light units (RLU) per milligram of total protein.

[2] = test system: COS7 (neurotrophin receptor negative) cells; experiment: Gene delivery in vitro (pCAGluc luciferase reporter), COS7 cells; format: cell-based, African green monkey; settings: triple complexes with protamine, 0.1 μg pCAGluc/well
Protocol: as §1, §2
TrkA-targeting gene delivery complexes were tested for transfection efficiency in vitro in PC12 (TrkA and p75^NTR positive) cells and COS7 (neurotrophin receptor negative) cells. […]
One to two days after transfection, the cell culture medium was removed and the cells were rinsed in phosphate-buffered saline (PBS). […] The total protein concentration of each lysate was determined using the DC Protein assay (Bio-Rad, Hercules, Calif., USA). […]

[3] = triple complexes with protamine (2 μg per μg DNA), 0.1 μg pCAGluc/well

B1: DsbC-NL4-10K: chimeric recombinant protein: NL4-10K attached to the C-terminus of DsbC, an E. coli disulfide bond isomerase (protein)
chain: MKKGFMLFTLLAAFSGFAQADDAAIQQTLAKMGIKSSDIQPAPVAGMKTVLTNSGVLYITDDGKHIIQGPMYDVSGTAPVNVTNKMLLKQLNALEKEMIVYKAPQEKHVITVFTDITCGYCHKLHEQMADYNALGITVRYLAFPRQGLDSDAEKEMKAIWCAKDKNKAFDDVMAGKSVAPASCDVDIADHYALGVQLGVSGTPAVVLSNGTLVPGYQPPKEMKEFLDEHQKMTSGKGSTSGSGHHHHHHSAGLVPRGSCTTTHTFVKALTMDGKQAAWRFIRIDTACKKKKKKKKKK
modifications: DsbC-NL4-10K
notes: chimeric recombinant protein: NL4-10K attached to the C-terminus of DsbC, an E. coli disulfide bond isomerase
Plasmid DNA
  DNA binding / retardation of DNA migration (in words): binds to DNA but cannot fully condense it
[1]; 30 minutes before transfection, compared to bovine serum albumin pre-treatment
  effect of pre-treatment with free protein on DsbC-NL4-10K/DNA/PEI600 transfection: greatly reduced the transfection efficiency
[1]; [3]
  N/P ratio of maximum transfection efficiency: 1 N/P ratio
  protein/DNA ratio of maximum transfection efficiency: 0.3 nmol/µg
[2]
  effect on protamine-mediated gene delivery: did not improve gene delivery
